{"source": "paper PMC6195791", "about": "“C9orf72, a protein associated with amyotrophic lateral sclerosis (ALS) is a guanine nucleotide exchange factor” (PeerJ, 2018)", "experiment_in_all_cases": "SEC; 3x molar excess of Rab mixed with C9orf72, overnight on ice with 20 mM EDTA; gel filtration in 20 mM Tris pH 8.0, 300 mM NaCl, 2 mM DTT, 20 mM EDTA (Superdex75 in the methods, Superdex 200 10/30 in the legend); 21 uM C9orf72 and 48 uM Rab per run; fractions checked by SDS-PAGE and western blot", "key": {"Rab5A": {"biological_target": "T1, Rab5A (UniProt P20339 1-215)", "T1 construct": "Rab5A, amplified from its cDNA clone and put into pGEX-6p-1 (BamHI/XhoI); about 25 kDa after tag cleavage; source: E. coli BL21CodonPlus(DE3)RIPL, purified (GST Sepharose 4B, PreScission cleavage, second GST Sepharose pass); not shown: GST, N-terminal, cleaved", "T1 sequence (looked up)": "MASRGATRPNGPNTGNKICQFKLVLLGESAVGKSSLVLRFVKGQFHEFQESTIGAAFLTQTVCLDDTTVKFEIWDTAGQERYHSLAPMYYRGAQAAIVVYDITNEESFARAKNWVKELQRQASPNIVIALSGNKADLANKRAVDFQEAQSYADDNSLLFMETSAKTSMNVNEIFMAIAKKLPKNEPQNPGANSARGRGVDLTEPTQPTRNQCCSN", "details": "both partners purified"}, "Rab11A": {"biological_target": "T2, Rab11A (UniProt P62491 1-216)", "T2 construct": "Rab11A, amplified from its cDNA clone and put into pGEX-6p-1 (BamHI/XhoI); about 25 kDa after tag cleavage; source: E. coli BL21CodonPlus(DE3)RIPL, purified (GST Sepharose 4B, PreScission cleavage, second GST Sepharose pass); not shown: GST, N-terminal, cleaved", "T2 sequence (looked up)": "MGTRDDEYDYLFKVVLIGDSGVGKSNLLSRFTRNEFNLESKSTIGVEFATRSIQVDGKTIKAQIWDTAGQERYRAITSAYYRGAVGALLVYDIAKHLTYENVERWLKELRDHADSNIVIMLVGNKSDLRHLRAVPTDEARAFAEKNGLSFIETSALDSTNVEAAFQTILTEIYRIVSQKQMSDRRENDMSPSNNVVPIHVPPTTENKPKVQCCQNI", "details": "both partners purified"}, "[1]": {"biological_target": "the molecule itself"}}, "data": [{"binder": "C9orf72 (N-terminal His6, pOPINF-C9orf72) (natural protein, human, UniProt Q96LT7 1-481, looked up, the homology model counts residues up to 481; No tag cleavage is described; also called His6-C9orf72; recombinant C9orf72; source: Sf9, baculovirus, purified (HisTrap HP, Superdex200 size-exclusion chromatography); not shown: His6, N-terminal, kept) MSTLCPPPSPAVAKTEIALSGKSPLLAATFAYWDNILGPRVRHIWAPKTEQVLLSDGEITFLANHTLNGEILRNAESGAIDVKFFVLSEKGVIIVSLIFDGNWNGDRSTYGLSIILPQTELSFYLPLHRVCVDRLTHIIRKGRIWMHKERQENVQKIILEGTERMEDQGQSIIPMLTGEVIPVMELLSSMKSHSVPEEIDIADTVLNDDDIGDSCHEGFLLNAISSHLQTCGCSVVVGSSAEKVNKIVRTLCLFLTPAERKCSRLCEAESSFKYESGLFVQGLLKDSTGSFVLPFRQVMYAPYPTTHIDVDVNTVKQMPPCHEHIYNQRRYMRSELTAFWRATSEEDMAQDTIIYTDESFTPDLNIFQDVLHRDTLVKAFLDQVFQLKPGLSLRSTFLAQFLLVLHRKALTLIKYIEDDTQKGKKPFKSLRNLKIDLDLTAEGDLNIIMALAEKIKPGLHSFIFGRPFYTSVQERDVLMTF", "values": [{"measurement": "stoichiometry N", "setting": "Rab5A", "value": 1}, {"measurement": "stoichiometry N", "setting": "Rab11A", "value": 1}, {"measurement": "binding result", "setting": "[1]", "value": "binds"}]}]}
